From paper PMC3142112, “Rationally Designed Turn Promoting Mutation in the Amyloid-β Peptide Sequence Stabilizes Oligomers in Solution” (PLoS ONE, 2011)

Legend:
Format in all cases: physicochemical
[1] = Thioflavin T fluorescence (aggregation / mature fibril formation); conditions: 25 µM fibrils (Aβ42WT) or SEC-eluted mutant oligomers, 5 µM ThT, 2 h incubation, excitation 440 nm, emission 480 nm, 25°C
Protocol: Thioflavin T fluorescence was used to assess aggregation and mature fibril formation as β-sheet content is directly correlated with fluorescence intensity of the dye.
(§1) Mean residue ellipticity (θ) was determined according to the equation θ = θObs • MRW/(10 • l • c); where θObs is observed ellipticity, MRW is mean residue weight of the peptide, c is peptide concentration (g/L), and l is optical path length (cm). The thioflavin T (ThT) binding studies of Aβ42WT and mutant peptides were carried out by incubating precipitated fibrils of the Aβ42WT or eluted oligomer preparation from the SEC column. The 25 µM amyloid fibrils (Aβ42WT) or oligomers of mutant were mixed with 5 µM of ThT dye concentration. After 2 h incubation, the fluorescence of the sample solutions were recorded by exciting at 440 nm and the intensity at 480 nm is monitored using Perkin-Elmer LC 55B spectrofluorimeter. The bandwidths of excitation/emission wavelengths were 5 nm/each.

[2] = Circular dichroism spectroscopy (conformation / fibril development)
Protocol: Conformational analyses of the mutant and Aβ42WT peptides were also carried out by Circular Dichroism (CD) spectroscopy.
The fibrils from the Aβ42WT preparation were centrifuged at 12000 rpm for 15 min to separate from any remaining monomer and the pellet was re-suspended in 10 mM phosphate pH 7.2 for CD measurement. CD measurements were performed using a 0.1 mm path length quartz cell in an Aviv 62A DS Circular Dichroism spectrometer (Aviv Associates, Lakewood, NJ) at 22°C.
as §1, with “The” for “Mean residue ellipticity (θ) was determined according to the equation θ = θObs • MRW/(10 • l • c); where θObs is observed ellipticity, MRW is mean residue weight of the peptide, c is peptide concentration (g/L), and l is optical path length (cm). The”

[3] = Atomic force microscopy of peptide preparations; conditions: 25 µM peptide adsorbed 10 min onto silicon wafers, tapping mode
Protocol: High-resolution analysis of the peptide solution preparations were carried out using atomic force microscopy (AFM).
AFM topography images were acquired in the light tapping mode regime using a Multimode AFM (Veeco, USA). Resonant frequencies of the uncoated silicon tips (MikroMasch, USA) were roughly 150 kHz, with scan rates around 5–8 µm/s. Peptide samples were prepared using the protocol described above and diluted to 25 µM before application. Peptide solutions were adsorbed by incubating onto Pirahna cleaned silicon wafers with molecular smoothness (∼1 Å RMS roughness) as determined by AFM. After incubating for 10 min, the wafers are gently washed repeatededly with MilliQ water.

[4] = One-dimensional 1H NMR of peptide preparations (soluble versus aggregated state); conditions: 10% DMSO/PBS
Protocol: All peptides were used as supplied. Solution samples of the peptides were prepared as follows. Peptides were dissolved in 1,1,1,3,3,3-hexafluoro-2-propanol (HFIP) to concentrations of 1 mM HFIP, evaporated over nitrogen, and then dried in a Savant Speed Vac for 1 hr. The resultant peptide films were further kept under vacuum for a few hours to remove solvent traces. The films were stored at −80°C until use. Peptide films were dissolved to ∼0.5 mM concentrations in 10% d6-DMSO/10 mM PBS buffer to a final pH of 7.2. The solutions were incubated at 4°C for 12 hours, and then transferred to 37°C for 4 hours. The resulting solutions were centrifuged at 13000 rpm in a desktop centrifuge (Eppendorf) at 4°C for 30 min to remove any precipitated gel-form of the peptides. After centrifugation, the peptide concentrations were adjusted to 0.4 mM (concentrations were checked by UV visible spectroscopy), 0.05% sodium azide added as a bacteriostat and transferred to 5 mm NMR tubes. […]
NMR spectra were acquired at the Stanford Magnetic Resonance Laboratory on a Bruker Avance 500 MHz spectrometer running TopSpin v1.3 and equipped with a 5 mm H{CN} Z-axis gradient CryoProbe. […] The data was processed in TopSpin and analyzed with SPARKY [38].

## Aβ42WT: wild type form of Aβ42, recombinant purified, unlabeled and 15N-labeled, from rPeptide
[1]
  Thioflavin T fluorescence of Aβ42WT compared to Aβ42Nle35p37: about four
[2]; 0.1 mm path length cell, WT fibril pellet in 10 mM phosphate pH 7.2, mutant SEC-eluted
  conformation by CD spectrum: β-sheet rich, mature fibrils
[2]; PBS buffer, absorbance at ∼220 nm
  period over which aggregate develops into β-sheet rich, mature fibrils (CD): 12 h
[3]
  mean globular structure height (AFM): 4.32 nm
[4]; 0.4 mM
  species formed in preparation: formed fibrils
[4]; pH 7.2, 25°C, samples prepared in the same manner
  state in solution by 1D 1H NMR (amide/aromatic region): very little observable signal
